In paper PMC9004659:

Target: Recombinant human BAX (wild type) (human) (UniProt Q07812)
Experiment: SEC

share of the BAX population shifted toward oligomers: > 70%
Substance: Recombinant human BAX (wild type) (from UniProt Q07812-1) (natural protein)
